Laboratory results as given in the supplement of paper PMC10567573.

B1: PLD5 (parent)
chain: KRTYWPDLDAKIREALVLRSVRVR
B2: SNAP91 (parent)
chain: FATASAAVPVSTSKPSSDLLDLQP

Variants of: B1
Test: protein stability index of a GFP-peptide fusion (GPS, HEK-293T) (PSI 1-6); higher = more stable
Conditions: c terminus: a fixed tail appended
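Also: lentivirally expressed fusions sorted by FACS into six bins by GFP to DsRed ratio, PSI derived from sequencing read proportions per bin multiplied by bin number.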

Row | Variant | protein stability index
1 | KRTYWPDLDAKIREALVLRSVRTR | 1.88
2 | KRTYWPDLDAKIREALVLRSVRYR | 1.74
3 | KRTYWPDLDAKIREALVLRSVRNR | 2.54
4 | KRTYWPDLDAKIREALVLRSVRWR | 1.78
5 | KRTYWPDLDAKIREALVLRSVRMR | 3.02
6 | KRTYWPDLDAKIREALVLRSVRPR | 3.22
7 | KRTYWPDLDAKIREALVLRSVRQR | 2.12
8 | KRTYWPDLDAKIREALVLRSVRLR | 1.03
9 | KRTYWPDLDAKIREALVLRSVRVC | 2.52
10 | KRTYWPDLDAKIREALVLRSVRVD | 2.27
11 | KRTYWPDLDAKIREALVLRSVRVQ | 3.34
12 | KRTYWPDLDAKIREALVLRSVRVL | 1.77
13 | KRTYWPDLDAKIREALVLRSVRVH | 1.74
14 | KRTYWPDLDAKIREALVLRSVRVA | 1.53
15 | KRTYWPDLDAKIREALVLRSVRVS | 1.97
16 | KRTYWPDLDAKIREALVLRSVRVT | 1.52
17 | KRTYWPDLDAKIREALVLRSVRVM | 1.68
18 | KRTYWPDLDAKIREALVLRSVRVI | 2.32
19 | KRTYWPDLDAKIREALVLRSVRVF | 2.13
20 | KRTYWPDLDAKIREALVLRSVRVK | 1.08
21 | KRTYWPDLDAKIREALVLRSVRVP | 2.01
22 | KRTYWPDLDAKIREALVLRSVRVY | 2.74
23 | KRTYWPDLDAKIREALVLRSVRVE | 1.94
24 | KRTYWPDLDAKIREALVLRSVRVN | 1.62

Variants of: B2
Test: as above
Conditions: c terminus: a fixed tail appended

Row | Variant | protein stability index
25 | FAFASAAVPVSTSKPSSDLLDLQP | 2.15
26 | FAMASAAVPVSTSKPSSDLLDLQP | 3.16
27 | FAPASAAVPVSTSKPSSDLLDLQP | 2.41
28 | FANASAAVPVSTSKPSSDLLDLQP | 3.24
29 | FACASAAVPVSTSKPSSDLLDLQP | 3.45
30 | FAHASAAVPVSTSKPSSDLLDLQP | 3.71
31 | FAYASAAVPVSTSKPSSDLLDLQP | 1.98
32 | FAWASAAVPVSTSKPSSDLLDLQP | 1.64
33 | FATASAAVPVSTSKPASDLLDLQP | 4.02
34 | FATASAAVPVSTSKPESDLLDLQP | 3.87
35 | FATASAAVPVSTSKPISDLLDLQP | 3.24
36 | FATASAAVPVSTSKPNSDLLDLQP | 3.81
37 | FATASAAVPVSTSKPQSDLLDLQP | 3.93
38 | FATASAAVPVSTSKPKSDLLDLQP | 3.43
39 | FATASAAVPVSTSKPPSDLLDLQP | 3.5
40 | FATASAAVPVSTSKPTSDLLDLQP | 3.03
41 | FATASAVVPVSTSKPSSDLLDLQP | 3.05
42 | FATASAGVPVSTSKPSSDLLDLQP | 3.72
43 | FATASAKVPVSTSKPSSDLLDLQP | 3.54
44 | FATASANVPVSTSKPSSDLLDLQP | 3.9
45 | FATASACVPVSTSKPSSDLLDLQP | 3.07
46 | FATASAMVPVSTSKPSSDLLDLQP | 4.01
47 | FATASAAVPVSTSKPSSDLLVLQP | 3.23
48 | FATASAAVPVSTSKPSSDLLALQP | 3.4

Row | Variant | protein stability index
49 | FATASAAVPVSTSKPSSDLLQLQP | 3.57
50 | FATASAAVPVSTSKPSSDLLELQP | 4.22
51 | FATASAAVPVSTSKPSSDLLTLQP | 3.51
52 | FATASAAVPVSTSKPSSDLLLLQP | 2.48
53 | FATASAAVPVSTSKPSSDLLRLQP | 3.28
54 | FATASAAVPVSTSKPSSDLLYLQP | 2.67
55 | FATASAAVPVSTSKPSSDLLMLQP | 3.23
56 | FATASAAVPVSTSKPSSDLLDLQE | 4.53
57 | FATASAAVPVSTSKPSSDLLDLQS | 3.64
58 | FATASAAVPVSTSKPSSDLLDLQI | 3.3
59 | FATASAAVPVSTSKPSSDLLDLQN | 3.43
60 | FATASAAVPVSTSKPSSDLLDLQD | 4.52
61 | FATASAAVPVSTSKPSSDLLDLQF | 2.8
62 | FATASAAVPVSTSKPSSPLLDLQP | 3.3
63 | FATASAAVPVSTSKPSSHLLDLQP | 3.04
64 | FATASAAVPVSTSKPSSCLLDLQP | 3.42
65 | FATASAAVPVSTSKPSSVLLDLQP | 3.17
66 | FATASAAVPVSTSKPSSSLLDLQP | 2.99
67 | FATASAAVPVSCSKPSSDLLDLQP | 2.58
68 | FATASAAVPVSPSKPSSDLLDLQP | 2.1
69 | FATASAAVPVSESKPSSDLLDLQP | 4.44
70 | FATASAAVPVSDSKPSSDLLDLQP | 4.04
71 | FATASAAVPVSTSKPSSDLLDNQP | 4.4
72 | FATASAAVPVSTSKPSSDLLDQQP | 4.3

Row | Variant | protein stability index
73 | FATASAAVPVSTSKPSSDLLDHQP | 4.07
74 | FATASAAVPVSTSKPSSDLLDSQP | 4.16
75 | FATASAAVPVSTSKPSSDLLDDQP | 4.22
76 | FATASAAVPVSTSKPSSDLLDIQP | 3.71
77 | FATASAAVPVSTSKPSSDLLDTQP | 4.3
78 | FATASAAVPVSTSKPSSDLLDKQP | 4.16
79 | FATASAAVPVSTSKPSWDLLDLQP | 3.31
80 | FATASAAVPVSTSKPSHDLLDLQP | 3.66
81 | FATASAAVPVSTSKPSQDLLDLQP | 3.72
82 | FATASAAVPVSTSKPSCDLLDLQP | 3.41
83 | FATASAAVPVSTSKPSADLLDLQP | 3.68
84 | FATASAAVPVSTSKPSTDLLDLQP | 4.21
85 | FATASAAVSVSTSKPSSDLLDLQP | 3.26
86 | FATASAAVCVSTSKPSSDLLDLQP | 2.27
87 | FATASAAVFVSTSKPSSDLLDLQP | 1.93
88 | FATASAAVPVSTVKPSSDLLDLQP | 3.52
89 | FATASAAVPVSTHKPSSDLLDLQP | 3.66
90 | FATASAAVPVSTAKPSSDLLDLQP | 3.82
91 | FATASAAVPVSTQKPSSDLLDLQP | 3.8
92 | FATASAAVPVSTTKPSSDLLDLQP | 3.38
93 | FATASAAVPVSTIKPSSDLLDLQP | 3.42
94 | FATASAAVPVSTPKPSSDLLDLQP | 3.83
